One substance from patent publication US20050227296A1, “Method for indentifying integrin antagonists” (The General Hospital Corporation, a Massachusetts …, priority 1988, published 2005) can be followed below.

In one test the target is EAC3b (Homo sapiens, UniProt P01024). The test is described as follows: Erythrocyte binding assay, EAC3b on immobilized protein. The protocol:
Erythrocytes (E) coated with rabbit anti-E IgM (EA) or C3b (EAC3b) were prepared as described by Dana et al. (J. Immunol. 73:153, 1984). EAiC3b (erythrocytes coated with iC3b) were generated by treating EAC3b with purified human factors H and I, or alternatively prepared from EA using C5-deficient human serum (Sigma Chemical Co., St. Louis, Mo.). EAiC3b cells were washed and stored in isotonic veronal-buffered saline (VBS^2+), pH 7.4, containing 0.15 mM calcium-1 mM magnesium (MgCl2+CaCl2) and 1 mg/ml Soybean Trypsin Inhibitor (STI; Worthington Biochemical Co., Freehold, N.J.) at 1.5×10^8 cells/ml. […]
Immobilization of recombinant proteins and peptides: Purified recombinant A-domain was added to Immulon-2 96-well microtiter plates (Dynatech) overnight. […] Binding of the anti-CD11b mabs to the coated rA-domain was measured by ELISA and read using a plate reader (Molecular Dynamics).
Erythrocyte binding assays: Fluoresceinated EAiC3b, EAC3b or EA were resuspended to 1.5×10^8/ml in buffer A, and added […] to wells containing immobilized proteins or peptides in a total volume of 100 ml. […] Fluorescence was quantified (excitatory wavelength, 490 nm, emission wavelength, 510 nm) using a SLM 8000 fluorometer (SLM Instruments, Urbana, Ill.). […] The effect of temperature was evaluated in the presence of 1 mM MnCl2 at 37° C. and at 4° C.

The next test concerns gelatin. The experiment in a line: A domain binding to gelatin.
Test [1] has as its system biotinylated NIF binding to human neutrophils. The test is described as follows: Inhibition of biotinylated NIF binding to neutrophils. The protocol:
100 μg of rNIF were labeled with sulfo-NHS-Biotin as described above. rNIF binding to resting or stimulated human neutrophils (pretreated with 10^−6 M f-met-leu-phe, for 15 minutes at 37° C., then washed) was measured. Increasing amounts of biotinylated rNIF in the absence or presence of 100-fold molar excess of unlabeled rNIF were incubated on ice for one hour with 1×10^6 neutrophils in VBSG^++ in a total volume of […]. Cells were then washed and incubated with phycoerythrin-coupled avidin (Sigma Chemical Co.) under similar conditions, washed again, fixed in 1% paraformaldehyde in PBS, and analyzed using FACScan (Becton Dickinson Co., Mountain View, Calif.). Mean channel fluorescence for each sample was then expressed as a function of the amount of biotinylated rNIF used. Background binding of phycoerythrin-streptavidin alone to neutrophils was subtracted (2.8 fluorescent units). Specific binding was obtained by […], and the values plotted according to Scatchard (Ann. N.Y. Acad. Sci. 51:660, 1949). To determine the effect of unlabeled fluid-phase-r11bA or GST on rNIF binding to neutrophils, each was preincubated at varying concentrations with biotinylated rNIF (20 ng/ml, final concentration) for 15 minutes on ice before addition of the mixture to neutrophils. The effect of mAbs on biotinylated NIF binding to neutrophils was assessed by preincubating the neutrophils with 100 μg/ml of each mAb at 4° C. for 15 minutes before addition of biotinylated NIF (20 ng/ml). The incubation then continued for one hour, followed by processing of cells for FACS analysis as described below.

In test [2] the target is T1, EAiC3b (erythrocytes coated with iC3b) (Homo sapiens, UniProt P01024).
T1 construct: EAiC3b (erythrocytes coated with iC3b) were generated by treating EAC3b with purified human factors H and I; tissue Sigma Chemical Co. (C5-deficient human serum); host or cells: human serum C3 deposited on IgM-coated erythrocytes
The test is described as follows: Erythrocyte binding assay, EAiC3b on immobilized proteins or peptides. The protocol: Erythrocytes (E) coated with rabbit anti-E IgM (EA) or C3b (EAC3b) were prepared as described by Dana et al. (J. Immunol. 73:153, 1984). EAiC3b (erythrocytes coated with iC3b) were generated by treating EAC3b with purified human factors H and I, or alternatively prepared from EA using C5-deficient human serum (Sigma Chemical Co., St. Louis, Mo.). EAiC3b cells were washed and stored in isotonic veronal-buffered saline (VBS^2+), pH 7.4, containing 0.15 mM calcium-1 mM magnesium (MgCl2+CaCl2) and 1 mg/ml Soybean Trypsin Inhibitor (STI; Worthington Biochemical Co., Freehold, N.J.) at 1.5×10^8 cells/ml. EA, EAC3b or EAiC3b were labeled with 5-(and-6)-carboxy fluorescein (Molecular Probes, Eugene, Oreg.) as described by Michishita et al. (Cell 72:857, 1993).
Immobilization of recombinant proteins and peptides: Purified recombinant A-domain was added to Immulon-2 96-well microtiter plates (Dynatech) overnight. Wells were then washed once with phosphate-buffered-saline, pH 7.4 without metals, and blocked with 1% BSA at room temperature (RT) for one hour, followed by two washings with buffer A (composed of 60% GVBS:VBS^2+ mixed in a 1:3 ratio; Arnaout et al., in Complement Receptor Type 3 at 602-615, Academic Press, FL) containing 1 mM MnCl2 or MgCl2+CaCl2. All the peptides were stocked at 1 mg/ml in water and similarly adsorbed to Immulon-2 96-well plates. Binding of the anti-CD11b mabs to the coated rA-domain was measured by ELISA and read using a plate reader (Molecular Dynamics).
Erythrocyte binding assays: Fluoresceinated EAiC3b, EAC3b or EA were resuspended to 1.5×10^8/ml in buffer A, and added […] to wells containing immobilized proteins or peptides in a total volume of […]. The plates were then briefly centrifuged to settle the erythrocytes, and allowed to incubate at 37° C. for 15 minutes in a humidified incubator with 5% CO2. For the inhibition studies, E were preincubated with each recombinant protein or pure peptide in the presence of 2% BSA for 5 minutes at RT and added to wells coated with immobilized protein or peptide without washing, unless otherwise indicated. At the end of the binding reactions, wells were washed, examined briefly by light microscopy then solubilized with 1% SDS-0.2 N NaOH. Fluorescence was quantified (excitatory wavelength, 490 nm, emission wavelength, 510 nm) using a SLM 8000 fluorometer (SLM Instruments, Urbana, Ill.). In experiments where the effects of individual divalent cations were measured, Ca^2+ and Mg^2+ were replaced with metal-free buffers or with buffers containing each cation at […], unless otherwise indicated. The effect of temperature was evaluated in the presence of 1 mM MnCl2 at 37° C. and at 4° C.

T1 sequence (P01024 749-1303 limits assumed): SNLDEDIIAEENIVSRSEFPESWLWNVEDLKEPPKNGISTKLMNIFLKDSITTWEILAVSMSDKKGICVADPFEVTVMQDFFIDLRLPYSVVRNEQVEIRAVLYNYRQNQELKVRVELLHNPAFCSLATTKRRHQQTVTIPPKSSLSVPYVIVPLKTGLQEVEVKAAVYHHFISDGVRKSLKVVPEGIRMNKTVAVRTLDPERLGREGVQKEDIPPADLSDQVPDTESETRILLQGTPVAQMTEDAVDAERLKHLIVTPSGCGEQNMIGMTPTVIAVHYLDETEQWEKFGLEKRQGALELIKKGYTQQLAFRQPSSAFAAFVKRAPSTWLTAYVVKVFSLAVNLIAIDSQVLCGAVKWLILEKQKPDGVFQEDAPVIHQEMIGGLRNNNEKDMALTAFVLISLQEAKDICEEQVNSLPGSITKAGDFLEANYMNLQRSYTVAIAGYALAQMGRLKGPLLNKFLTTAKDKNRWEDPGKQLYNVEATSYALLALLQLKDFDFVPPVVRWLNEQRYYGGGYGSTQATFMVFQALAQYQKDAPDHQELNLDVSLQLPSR
T1 sequence (P01024 23-667 partner limits assumed): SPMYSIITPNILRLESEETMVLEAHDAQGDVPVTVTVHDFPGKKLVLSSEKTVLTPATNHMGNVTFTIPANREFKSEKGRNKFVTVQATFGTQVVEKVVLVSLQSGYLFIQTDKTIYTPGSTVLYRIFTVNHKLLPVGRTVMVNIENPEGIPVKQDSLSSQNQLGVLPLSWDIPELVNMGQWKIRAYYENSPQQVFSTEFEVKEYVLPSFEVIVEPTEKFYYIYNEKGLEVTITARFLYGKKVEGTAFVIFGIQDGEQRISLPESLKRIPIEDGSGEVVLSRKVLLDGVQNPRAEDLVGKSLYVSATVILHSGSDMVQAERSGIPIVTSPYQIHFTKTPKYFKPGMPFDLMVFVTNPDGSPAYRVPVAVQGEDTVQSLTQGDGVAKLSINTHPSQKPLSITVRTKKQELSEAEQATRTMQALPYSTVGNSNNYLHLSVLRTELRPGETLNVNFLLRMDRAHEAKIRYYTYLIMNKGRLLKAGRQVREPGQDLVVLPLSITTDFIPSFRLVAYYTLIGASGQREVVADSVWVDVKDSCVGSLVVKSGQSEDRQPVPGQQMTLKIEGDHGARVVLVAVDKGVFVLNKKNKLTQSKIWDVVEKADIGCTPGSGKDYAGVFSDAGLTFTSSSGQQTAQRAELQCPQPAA
T1 sequence (P01024 1321-1663 partner limits assumed): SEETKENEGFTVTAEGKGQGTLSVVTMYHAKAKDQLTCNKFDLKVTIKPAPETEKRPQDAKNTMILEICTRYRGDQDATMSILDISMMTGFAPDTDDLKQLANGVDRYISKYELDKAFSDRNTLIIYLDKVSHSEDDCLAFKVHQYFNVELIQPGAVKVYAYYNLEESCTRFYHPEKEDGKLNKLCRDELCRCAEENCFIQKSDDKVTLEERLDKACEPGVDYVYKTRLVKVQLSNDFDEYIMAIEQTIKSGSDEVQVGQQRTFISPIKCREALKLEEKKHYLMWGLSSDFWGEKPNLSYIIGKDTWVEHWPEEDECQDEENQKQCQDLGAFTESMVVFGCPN
EAC3b, sequence (P01024 749-1663 limits assumed): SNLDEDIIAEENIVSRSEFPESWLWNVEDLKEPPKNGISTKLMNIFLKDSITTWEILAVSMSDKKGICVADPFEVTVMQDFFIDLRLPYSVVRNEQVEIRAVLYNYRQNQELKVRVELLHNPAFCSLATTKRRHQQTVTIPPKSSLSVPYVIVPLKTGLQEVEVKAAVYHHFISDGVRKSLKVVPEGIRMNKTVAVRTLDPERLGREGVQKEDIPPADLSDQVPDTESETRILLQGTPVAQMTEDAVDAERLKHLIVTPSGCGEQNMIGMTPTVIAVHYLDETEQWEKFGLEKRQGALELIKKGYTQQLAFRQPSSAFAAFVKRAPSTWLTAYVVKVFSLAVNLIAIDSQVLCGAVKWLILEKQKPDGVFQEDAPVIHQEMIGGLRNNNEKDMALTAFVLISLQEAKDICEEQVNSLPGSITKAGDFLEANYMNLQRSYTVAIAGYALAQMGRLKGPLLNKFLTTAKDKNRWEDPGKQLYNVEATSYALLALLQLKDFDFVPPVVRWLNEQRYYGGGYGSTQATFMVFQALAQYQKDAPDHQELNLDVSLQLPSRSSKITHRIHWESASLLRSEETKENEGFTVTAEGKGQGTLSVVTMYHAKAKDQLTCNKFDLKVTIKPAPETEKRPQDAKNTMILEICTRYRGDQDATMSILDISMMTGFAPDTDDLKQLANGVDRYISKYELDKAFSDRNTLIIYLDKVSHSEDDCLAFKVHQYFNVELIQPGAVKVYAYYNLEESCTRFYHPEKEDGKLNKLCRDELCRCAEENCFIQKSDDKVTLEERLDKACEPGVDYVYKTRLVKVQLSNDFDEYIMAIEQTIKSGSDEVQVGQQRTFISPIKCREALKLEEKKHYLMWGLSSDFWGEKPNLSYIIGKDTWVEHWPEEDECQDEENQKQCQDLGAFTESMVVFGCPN
EAC3b, sequence (P01024 23-667 partner limits assumed): as the sequence (P01024 23-667 partner limits assumed) above

Consider “r11bA: recombinant human CD11b A domain (Cys128 to Glu321), expressed as GST fusion protein, used as such or after thrombin cleavage”, for which the “binding of EAC3b to immobilized protein” value with EAC3b is listed as “not”. In addition, the “binding of the A domain to gelatin” value in the test on gelatin is given as “binds”. Besides, the “concentration range inhibiting NIF binding to leukocytes” value in test [1] is recorded as “low nM range”. In test [1] (dose dependent), the “effect of fluid-phase protein on biotinylated rNIF binding to human neutrophils” value is listed as “abolished”. Moreover, in test [1] (fluid-phase protein, read-out: half-maximal inhibition of biotinylated rNIF binding to human neutrophils), the IC50 was roughly 1 nM. Also, the “binding of the A domain to iC3b” value in test [2] is reported as “binds”. Besides, the “EAiC3b binding to rA-domain with MnCl2, MgCl2 or MgCl2 plus CaCl2” value in test [2] (1 mM MnCl2, 1 mM MgCl2 or 1 mM MgCl2 and 0.15 mM CaCl2) is recorded as “supported”. Further, the “temperature dependency of EAiC3b binding to rA-domain” value in test [2] (37° C. and 4° C., 1 mM MnCl2) is given as “temperature-independent”. In test [2] (37° C., divalent cations), the “direct binding of EAiC3b to immobilized protein or peptide” value was “bound”. In addition, the “EAiC3b binding to rA-domain with CaCl2 alone” value in test [2] (CaCl2 alone (0.15-1 mM)) was “ineffective”. Moreover, the “EAiC3b binding to rA-domain, divalent cations omitted or EDTA included” value in test [2] (no divalent cations or EDTA) is “No specific binding”.
